Reference: paper PMC11746035 (Frontiers in Immunology, 2024)

B1: BD56-595 N56 allelic variant (antibody, V domains shown)
VH: QITLKESGPTLVKPTQTLTLTCTFSGFSITTAGVGVGWIRQPPGKALEWLALIYWNGDRRYSPSLKNRVDITTDISKNQVVLTMTNMAPVDTATYYCAQHTIDMILDYWGQGTLVTVSS
VL: QSALTQPPSASGSPGQSVTISCTATSSDVGAYNYVSWYQQHPGKAPKLMIYEVNKRPSGVPDRFSGSKSGNTASLTVSGLQAEDEADYYCSSYTDNIVFGTGTRVTVL
notes: as the heavy chain of m12, with N56 in place of D56; numbers count on: IMGT unique numbering, excluding any gaps; as the light chain of m12; IgG1; also called N56 allele
B2: BD57-028 N56 allelic variant (antibody, V domains shown)
VH: QITLKESGPTLVKPTQTLTLTCTFSGFSLSASGEGMGWIRQPPGKALEWLALIYWNADERYSPSLRSRLTITKDTSKNQVVLKMTNMNPVDTATYYCAHHSITTVVDYWGQGMLVTVSS
VL: QSALTQPASVSGSPGQSITISCTGTISDVGAFNYVSWYQQHPGRAPKLIIYDVSTRPSGISIRFSGSKSGNTASLTISGLQPEDEADYYCSSYSHTSLVFGTGTKVTVL
notes: as the heavy chain of m8, with N56 in place of D56; numbers count on: IMGT unique numbering, excluding any gaps; as the light chain of m8; IgG1; also called N56 allele

Target: T1, SARS-CoV-2 BQ.1.1 RBD (SARS-CoV-2, Omicron BQ.1.1, L452R | K444T)
T1 construct: also called L452R RBD of BQ.1.1
Assay: BLI; antibody (IgG1, 11 μg/mL) loaded on AHC2 biosensor to about 1.5 nm; RBD in solution, association 300 s, dissociation 600 s; PBS-TB (PBS, 0.02% v/v Tween-20, 0.1% w/v BSA); 25°C; 1,000 rpm; binding response less than 0.1 considered non-binding
Settings: both partners purified

Row | Binder | fold increase in binding affinity against the D56 variant [fold]
1 | B1 | 57
2 | B2 | 57
